Results as given in patent US20210395725A1.
One block for each binder: values may come before it.

Columns and labels:
BSA (bovine) = BSA (bovine) (UniProt P02769); test: ELISA; BSA as control antigen, neat eluted His-tagged protein, anti-pentaHis-HRP
[1] = biological target: human placental laminin (human); test: HEK293-6E cell display flow cytometry; 500 nM laminin-biotin + streptavidin-Alexa Fluor 647; secondary only 5.57
[2] = biological target: human placental laminin (human); test: HEK293-6E cell display flow cytometry; 500 nM laminin-biotin + streptavidin-Alexa Fluor 647; secondary only 3.28
[3] = biological target: human placental laminin (human); test: HEK293-6E cell display flow cytometry; 500 nM laminin-biotin + streptavidin-Alexa Fluor 647; secondary only 4.11
[4] = biological target: human placental laminin (human); test: HEK293-6E cell display flow cytometry; 500 nM laminin-biotin + streptavidin-Alexa Fluor 647; secondary only 4.17
[5] = biological target: human placental laminin (human); test: bead flow cytometry; EVs on CD9+ capture beads, 5 µg/mL biotinylated laminin + neutravidin-PE; without competition
[6] = biological target: human placental laminin (human); test: bead flow cytometry; EVs on CD9+ capture beads, 5 µg/mL biotinylated laminin + neutravidin-PE; with competition of 3-fold molar excess of unlabelled laminin (15 µg/mL)
[7] = biological target: human placental laminin (human); test: HEK293-6E cell display flow cytometry; 500 nM laminin-biotin + streptavidin-Alexa Fluor 647; secondary only 1.77
[8] = biological target: human placental laminin (human); test: HEK293-6E cell display flow cytometry; 500 nM laminin-biotin + streptavidin-Alexa Fluor 647; secondary only 6.09

BSA (bovine), sequence (P02769 25-607 limits assumed): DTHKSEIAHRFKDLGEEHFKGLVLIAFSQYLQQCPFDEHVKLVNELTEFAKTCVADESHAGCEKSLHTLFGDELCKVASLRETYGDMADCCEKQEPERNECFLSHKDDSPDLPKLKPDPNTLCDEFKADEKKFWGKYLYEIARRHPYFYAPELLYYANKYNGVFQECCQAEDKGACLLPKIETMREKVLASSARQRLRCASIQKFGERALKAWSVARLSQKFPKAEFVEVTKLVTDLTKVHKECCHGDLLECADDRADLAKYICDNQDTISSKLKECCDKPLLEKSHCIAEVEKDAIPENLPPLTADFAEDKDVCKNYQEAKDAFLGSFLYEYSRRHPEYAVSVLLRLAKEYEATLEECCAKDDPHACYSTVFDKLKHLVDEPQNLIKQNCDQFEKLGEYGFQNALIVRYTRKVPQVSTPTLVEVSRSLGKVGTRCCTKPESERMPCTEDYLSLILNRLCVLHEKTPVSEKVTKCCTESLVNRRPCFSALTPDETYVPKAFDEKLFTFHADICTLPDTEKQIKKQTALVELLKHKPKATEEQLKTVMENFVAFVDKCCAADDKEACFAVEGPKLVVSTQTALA

- A450/620 (average) (BSA (bovine)): 0.045
B1: laminin-binding CD81 LEL mutant L2A_LU1 (designed binder)
chain: FVNKDQIAKDVKQFYDQALRECCNTFDANNACAVVKTFHETLDCCGSSTTHSSTGCVLFFNLCPSGSNIISNLFKEDCHQKIDDLFSGK

- % antigen-positive cells [1]: 37.9%
B2: laminin-binding CD81 LEL mutant L2A_LU1_1 (designed binder)
chain: FVNKDQIAKDVKQFYDQALMICCHRHYANNACAVVKTFHETLDCCGSSTPSSTTPCVLQNNLCPSGSNIISNLFKEDCHQKIDDLFSGK

- % antigen-positive cells [2]: 37.1%
B3: laminin-binding CD81 LEL mutant 81_L21 (designed binder)
chain: FVNKDQIAKDVKQFYDQALFICCFRRYANNACAVVKTFHETLDCCGSSTRNNETACVLAKNLCPSGSNIISNLFKEDCHQKIDDLFSGK

- A450/620 (average) (BSA (bovine)): 0.016
B4: laminin-binding CD81 LEL mutant L3A_LU1 (designed binder)
chain: FVNKDQIAKDVKQFYDQCLLWACSKRYKYNAKACVKTFHETLDCCGSSTMGNLTECVLIENLCPSGSNIISNLFKEDCHQKIDDLFSGK

- % antigen-positive cells [3]: 28.1%
B5: laminin-binding CD81 LEL mutant 81_L17 (designed binder)
chain: FVNKDQIAKDVKQFYDQCLRHACSGLSGRNAKACVKTFHETLDCCGSSTIKHKTLCVLIKNLCPSGSNIISNLFKEDCHQKIDDLFSGK

- % antigen-positive cells [4]: 30.8%
B6: laminin-binding CD81 LEL mutant 81_L13 (designed binder)
chain: FVNKDQIAKDVKQFYDQCLSWACNRKYEPNAKACVKTFHETLDCCGSSTKANYTHCVLEMNLCPSGSNIISNLFKEDCHQKIDDLFSGK

- Mean 561 [5]: 20200
- Mean 561 - BG [5]: 14800
- ratio 488/561 [5]: 0.21
- Mean 561 [6]: 23900
- Mean 561 - BG [6]: 18700
- ratio 488/561 [6]: 0.248
B7: wild-type CD81-eGFP on recombinant EVs (protein, not shown: large carriers)
chain: MGVEGCTKCIKYLLFVFNFVFWLAGGVILGVALWLRHDPQTTNLLYLELGDKAPNTFYVGIYILIAVGAVMMFVGFLGCYGAIQESQCLLGTFFTCLVILFACEVAAGIWGFVNKDQIAKDVKQFYDQALQQAVVDDDANNAKAVVKTFHETLDCCGSSTLTALTTSVLKNNLCPSGSNIISNLFKEDCHQKIDDLFSGKLYLIGIAAIVVAVIMIFEMILSMVLCCGIRNSSVY

- % antigen-positive cells [7]: 20.1%
B8: laminin-binding CD81 LEL mutant L2B_LU1_1 (designed binder)
chain: FVNKDQIAKDVKQFYDQALWKCCNLSQANNACAVVKTFHETLDCCGSSTYLCATYCVLWPNLCPSGSNIISNLFKEDCHQKIDDLFSGK

- % antigen-positive cells [8]: 54.2%
B9: laminin-binding CD81 LEL mutant L2B_LU1 (designed binder)
chain: FVNKDQIAKDVKQFYDQALVFCCFGGHANNACAVVKTFHETLDCCGSSTHPYKTKCVLQRNLCPSGSNIISNLFKEDCHQKIDDLFSGK

- A450/620 (average) (BSA (bovine)): 0.021
B10: laminin-binding CD81 LEL mutant L3B_LU1_2 (designed binder)
chain: FVNKDQIAKDVKQFYDQCLKYACKQGDWENAKACVKTFHETLDCCGSSTVANMTRCVLPANLCPSGSNIISNLFKEDCHQKIDDLFSGK
